The target in one test is T1, rHER2-Fc (UniProt P04626 23-652).
T1 construct: Bought reagent; also called Her2 (ErbB2) Fc; ErbB2-Fc
In words: ELISA, rHER2-Fc coated (20 ng/ml), sample diluted in 1.94 ug/ml biotinylated Ang2, detection with HRP anti-human kappa chain mAb, A450. How it is done:
(§1) Ninety-six-well plates were coated overnight with rHER2-Fc (R&D cat#1129-ER-050) at 20 ng/ml (100W/well). […] After washing (8×300 μl wash buffer), parallel samples received either HRP-conjugated anti-human kappa chain mAb-(Abeam, cat # ab79115-1) diluted 1:1000 in Blocking buffer or HRP-conjugated streptavidin (Thermo Scientific cat#N100) diluted 1:4000 diluted in Blocking buffer. After incubation for 1 hour at RT, wells were washed (8×300 μl wash buffer) prior to receiving 100 μl of TMB substrate (KPL Laboratories). Color development was stopped with 100 μl of H₂SO₄, and absorbance was read at 450 nm.
(In general: ELISA stands for enzyme-linked immunosorbent assay.)

In test [1] the target is T2, VEGF (human, UniProt P15692-4 27-191). In words: cell-based or functional assay.
T2 sequence (P15692 other isoform, or with tags, fused parts or gaps limits assumed): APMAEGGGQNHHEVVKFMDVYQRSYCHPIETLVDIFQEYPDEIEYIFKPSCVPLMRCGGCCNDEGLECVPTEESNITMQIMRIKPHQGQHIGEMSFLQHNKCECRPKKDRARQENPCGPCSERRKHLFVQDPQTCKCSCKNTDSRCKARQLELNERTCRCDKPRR
In test [2] the target is T2, VEGF. In words: sandwich ELISA, human VEGF coated (30 ng/ml), zybody varied in 3.876 ug/ml biotinylated Ang2, detection with HRP-streptavidin, A450. How it is done:
as §1, with “human VEGF (PeproTech, Inc. cat#100-20)” for “rHER2-Fc (R&D cat#1129-ER-050)”, “30” for “20”, “(100 μl/well).” for “(100W/well).”, “mAb (Abeam,” for “mAb-(Abeam,”, “ab79115)” for “ab79115-1)”

For test [3], the target named is T2, VEGF. In words: ELISA, human VEGF coated (30 ng/ml), sample diluted in 3.876 ug/ml biotinylated Ang2, detection with HRP anti-human kappa chain mAb, A450. How it is done: as §1, with “human VEGF (PeproTech, Inc. cat#100-20)” for “rHER2-Fc (R&D cat#1129-ER-050)”, “30” for “20”, “(100 μl/well).” for “(100W/well).”, “mAb (Abeam,” for “mAb-(Abeam,”, “ab79115)” for “ab79115-1)”

The target of test [4] is T3, angiopoietin-2 (Ang2) (human, UniProt O15123 68-496, limits assumed).
T3 construct: Plain and biotinylated Ang2 are kept as one molecule; also called rhAng2; recombinant Ang2
T3 sequence (looked up): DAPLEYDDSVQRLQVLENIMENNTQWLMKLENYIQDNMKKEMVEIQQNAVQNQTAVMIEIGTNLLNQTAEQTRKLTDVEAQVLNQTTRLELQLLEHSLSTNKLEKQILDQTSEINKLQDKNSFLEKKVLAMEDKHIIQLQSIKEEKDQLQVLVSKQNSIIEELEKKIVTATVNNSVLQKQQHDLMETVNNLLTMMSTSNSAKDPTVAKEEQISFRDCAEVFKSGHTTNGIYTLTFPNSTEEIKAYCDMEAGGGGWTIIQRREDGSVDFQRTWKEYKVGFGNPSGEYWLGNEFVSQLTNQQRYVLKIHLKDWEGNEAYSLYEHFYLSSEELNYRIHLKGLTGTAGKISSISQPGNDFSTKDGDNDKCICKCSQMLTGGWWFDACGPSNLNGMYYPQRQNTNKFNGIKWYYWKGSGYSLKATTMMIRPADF
In words: ELISA on rhAng2-coated wells, MRD-MBP fusion, anti-MBP detection; EC50 by 4 parameter fit. The protocol:
(§2) MBP fusion proteins were serially diluted in Blocking buffer and added to wells for 2 hours at RT. After washing (8×300 μl wash buffer), samples were treated with HRP-mouse anti MBP mAb (NEB, cat # E8038S), diluted 1:4000 in Blocking buffer. After incubation for 1 hour at RT, wells were washed (8×300 μl wash buffer) prior to receiving 100 μl of TMB substrate (KPL Laboratories). Color development was stopped with 100 μl of H₂SO₄, and absorbance was read at 450 nm.
(§3) Bound fusion proteins were detected with anti-MBP mAb. Assayed proteins represent mutational variants of the sequence […] […] (L17D) (SEQ ID NO:107). In this series, the motif MDD within L17D was mutated at the first D to all other possible amino acids (except cysteine). Other MRDs tested were “Lm32 KtoS” and a dimer of Lm32 (2×Lm32).

The target of test [5] is T3, angiopoietin-2 (Ang2). In words: ELISA, MRD-MBP fusions on plate-bound rhAng2, anti-MBP detection. How it is done: as §2, §3

In general, EC50 (read off the curve) refers to the concentration needed to bring the measured effect to its halfway point. Low readings indicate greater potency, high ones weaker potency. Usually EC50 stands for the concentration needed to bring the measured effect to its halfway point. Higher therefore signals weaker potency.

B1: AVA-lm32(H) (bispecific antibody, not shown: a dimerising Fc or GST)
heavy (part 1 of 2): EVQLVESGGGLVQPGGSLRLSCAASGYTFTNYGMNWVRQAPGKGLEWVGWINTYTGEPTYAADFKRRFTFSLDTSKSTAYLQMNSLRAEDTAVYYCAKYPHYYGSSHWYFDVWGQGTLVTVSS
heavy (part 2 of 2): MGAQTNFMPMDNDELLLYEQFILQQGLE
VL: DIQMTQSPSSLSASVGDRVTITCSASQDISNYLNWYQQKPGKAPKVLIYFTSSLHSGVPSRFSGSGSGTDFTLTISSLQPEDFATYYCQQYSTVPWTFGQGTKVEIKR
notes: also called AVASTIN with the lm32 MRD fused to the heavy chain
For B1, in the test with rHER2-Fc, the binding result is “no binding (tested: about 7 nM)”. Further, the “inhibition of VEGF-induced proliferation of HUVEC, IC50” value with VEGF [1] was 360 pM. The figures for the “EC50 (read off the curve)” value with VEGF [2] and with VEGF [3] were roughly 700 pM and roughly 500 pM, respectively.

B2: 2×Lm32-MBP fusion (other, not shown: small tags and cut ends)
peptide: PGKGGGSMGAQTNFMPMDNDELLLYEQFILQQGLEGGGSMGAQTNFMPMDNDELLLYEQFILQQGLE
notes: also called Lm32 dimer
Consider B2, for which the midpoint of the response with angiopoietin-2 (Ang2) [4], the EC50, lay at 5 pM. For the same molecule, the “fold higher affinity than L17D or Lm32 KtoS” value with angiopoietin-2 (Ang2) [5] is greater than 10 fold.

For the origin of these results see patent publication US20170298106A1 (ZYNGENIA, published 2017).
